Here are results for 3 substances from patent US20210292423A1.

Experiment [1] concerns the target human CD123 (IL3RA) on cells (human) (UniProt P26951). Kind of experiment: cell-based or functional assay.
Experiment [2] deals with Macaca fascicularis CD3 (TCR complex) on cyno HSC-F cells (Macaca fascicularis) (UniProt Q95LI5). Put plainly: flow cytometry, cyno HSC-F. For orientation: In flow cytometry, cells or beads pass a laser one at a time.
The target of experiment [3] is human CD3 (TCR complex) on primary human T cells or Jurkat cells (human) (UniProt P07766). Kind of experiment: flow cytometry, Jurkat E6-1.
Sequence of human CD3 (TCR complex) on primary human T cells or Jurkat cells (human) (P07766 23-207, one chain of several): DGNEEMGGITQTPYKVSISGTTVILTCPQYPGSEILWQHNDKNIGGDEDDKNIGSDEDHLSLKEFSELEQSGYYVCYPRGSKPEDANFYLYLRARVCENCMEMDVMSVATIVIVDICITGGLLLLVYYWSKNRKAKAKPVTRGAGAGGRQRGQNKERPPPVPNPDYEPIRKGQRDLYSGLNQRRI
For experiment [4], the target named is Macaca fascicularis CD3ε/δ-Fc fusion protein (Macaca fascicularis) (UniProt Q95LI8). Kind of experiment: SPR Biacore, ratio against human CD3εδ. (SPR reads the build-up and loss of mass on a sensor chip optically.)
Sequence of Macaca fascicularis CD3ε/δ-Fc fusion protein (Macaca fascicularis) (chain, as listed by the source mutant, chain 1 of 2): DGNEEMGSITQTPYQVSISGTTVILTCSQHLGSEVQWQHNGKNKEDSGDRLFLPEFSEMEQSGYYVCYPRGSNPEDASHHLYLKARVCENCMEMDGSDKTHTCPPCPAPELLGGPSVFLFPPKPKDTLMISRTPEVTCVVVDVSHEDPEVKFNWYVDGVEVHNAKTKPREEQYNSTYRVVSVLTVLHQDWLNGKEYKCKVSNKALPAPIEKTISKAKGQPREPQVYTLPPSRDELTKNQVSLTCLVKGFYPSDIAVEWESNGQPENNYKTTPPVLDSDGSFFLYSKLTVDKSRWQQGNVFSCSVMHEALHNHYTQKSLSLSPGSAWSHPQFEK
Sequence of Macaca fascicularis CD3ε/δ-Fc fusion protein (Macaca fascicularis) (Q95LI8 22-105, stated change not applied, chain 2 of 2): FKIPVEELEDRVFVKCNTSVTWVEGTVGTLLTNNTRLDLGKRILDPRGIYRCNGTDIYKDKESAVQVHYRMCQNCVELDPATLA

Sequence of Macaca fascicularis CD3 (TCR complex) on cyno HSC-F cells (Macaca fascicularis) (Q95LI5 22-198, one chain of several): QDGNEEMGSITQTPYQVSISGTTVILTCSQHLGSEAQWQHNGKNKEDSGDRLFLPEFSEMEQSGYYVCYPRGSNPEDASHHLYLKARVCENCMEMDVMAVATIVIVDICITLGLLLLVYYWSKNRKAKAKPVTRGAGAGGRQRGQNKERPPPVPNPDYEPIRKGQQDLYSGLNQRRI
Sequence of CODV-Fab 7G3 × I2C (bispecific antibody) (light, part): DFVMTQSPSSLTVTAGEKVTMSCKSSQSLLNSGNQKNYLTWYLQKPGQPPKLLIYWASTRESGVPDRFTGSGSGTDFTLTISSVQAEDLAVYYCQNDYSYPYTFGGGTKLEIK
Sequence of CODV-Fab 7G3 × I2C (bispecific antibody) (heavy, part): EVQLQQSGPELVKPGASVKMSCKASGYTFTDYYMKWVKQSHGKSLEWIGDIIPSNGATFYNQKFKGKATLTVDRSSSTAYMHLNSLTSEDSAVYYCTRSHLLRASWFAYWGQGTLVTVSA
Sequence of human CD123 (IL3RA) on cells (human) (P26951 19-378): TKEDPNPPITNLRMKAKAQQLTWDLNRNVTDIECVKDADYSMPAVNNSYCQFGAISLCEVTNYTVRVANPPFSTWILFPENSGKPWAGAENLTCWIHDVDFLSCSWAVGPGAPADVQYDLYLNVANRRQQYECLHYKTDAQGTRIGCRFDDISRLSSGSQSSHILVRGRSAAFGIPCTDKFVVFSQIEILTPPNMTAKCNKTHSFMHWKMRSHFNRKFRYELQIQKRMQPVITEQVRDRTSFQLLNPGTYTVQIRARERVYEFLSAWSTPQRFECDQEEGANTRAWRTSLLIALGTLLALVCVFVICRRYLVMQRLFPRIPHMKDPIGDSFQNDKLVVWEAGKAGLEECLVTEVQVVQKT

In experiment [1], “CODV-Fab 7G3 × I2C (bispecific antibody)” had an Activity EC50 [ng/ml], cytotoxic assay on THP-1 with human T cells of 20 ng/mL.

As to FN18 (antibody), the geometric mean of relative fluorescence intensity (rfu) in experiment [2] turned out to be 1260 rfu; in experiment [3] it was 7 rfu.

Consider SP-34 (antibody), for which the Ratio KD(cy)/KD(hu) in experiment [4] was 5.
